Results: article doi:10.1101/528711

Tests used:
[1] = target: Atto532-tUI (UniProt Q9UMX0); experiment: other fluorescence titration
[2] = target: tIVR (UniProt P45974); experiment: other fluorescence titration
[3] = target: Atto532-tISR (UniProt P45974); experiment: other fluorescence titration
[4] = target: tUI (UniProt Q9UMX0); experiment: other fluorescence titration
[5] = target: Atto532-tUI (UniProt Q9UMX0); experiment: stopped-flow fluorescence kinetics

Chain of Atto532-tUI (Q9UMX0 whole entry, looked up): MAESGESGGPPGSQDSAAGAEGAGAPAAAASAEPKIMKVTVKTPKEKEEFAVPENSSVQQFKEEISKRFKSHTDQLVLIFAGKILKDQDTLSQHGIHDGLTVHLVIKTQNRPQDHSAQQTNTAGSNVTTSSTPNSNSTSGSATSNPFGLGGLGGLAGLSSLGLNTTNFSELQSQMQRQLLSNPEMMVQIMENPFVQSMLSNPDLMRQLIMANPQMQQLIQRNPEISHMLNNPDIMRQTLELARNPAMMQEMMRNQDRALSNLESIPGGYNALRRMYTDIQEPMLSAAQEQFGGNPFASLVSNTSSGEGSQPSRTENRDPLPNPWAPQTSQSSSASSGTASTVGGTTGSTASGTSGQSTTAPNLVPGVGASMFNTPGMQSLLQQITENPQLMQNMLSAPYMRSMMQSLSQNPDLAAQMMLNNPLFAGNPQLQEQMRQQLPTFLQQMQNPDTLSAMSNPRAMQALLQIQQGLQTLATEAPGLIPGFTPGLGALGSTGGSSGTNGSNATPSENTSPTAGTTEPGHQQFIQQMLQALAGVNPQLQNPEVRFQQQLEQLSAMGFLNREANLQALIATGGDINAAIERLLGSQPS
Chain of tIVR (P45974 whole entry, looked up): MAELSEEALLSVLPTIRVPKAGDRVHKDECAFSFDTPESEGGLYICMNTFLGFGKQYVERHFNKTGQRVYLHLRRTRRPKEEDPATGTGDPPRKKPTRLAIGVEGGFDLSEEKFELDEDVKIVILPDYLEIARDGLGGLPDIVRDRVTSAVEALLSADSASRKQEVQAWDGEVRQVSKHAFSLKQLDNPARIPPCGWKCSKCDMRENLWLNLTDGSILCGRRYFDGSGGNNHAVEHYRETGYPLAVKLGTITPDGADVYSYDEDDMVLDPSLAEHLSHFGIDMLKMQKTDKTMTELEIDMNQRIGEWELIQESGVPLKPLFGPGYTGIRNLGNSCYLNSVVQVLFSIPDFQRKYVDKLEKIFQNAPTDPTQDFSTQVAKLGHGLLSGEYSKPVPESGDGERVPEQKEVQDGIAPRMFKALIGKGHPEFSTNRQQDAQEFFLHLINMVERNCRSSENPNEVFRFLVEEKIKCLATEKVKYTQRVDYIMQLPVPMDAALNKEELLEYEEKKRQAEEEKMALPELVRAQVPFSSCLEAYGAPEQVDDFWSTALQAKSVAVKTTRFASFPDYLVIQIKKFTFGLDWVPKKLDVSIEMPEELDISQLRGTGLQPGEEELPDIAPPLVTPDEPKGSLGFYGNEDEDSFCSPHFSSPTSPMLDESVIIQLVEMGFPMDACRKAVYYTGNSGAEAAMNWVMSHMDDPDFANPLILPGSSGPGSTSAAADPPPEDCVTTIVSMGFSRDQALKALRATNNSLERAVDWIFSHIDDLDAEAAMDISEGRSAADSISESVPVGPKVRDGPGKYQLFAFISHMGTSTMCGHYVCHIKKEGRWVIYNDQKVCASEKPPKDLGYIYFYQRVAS
Chain of Nedd8 (Q15843 1-76): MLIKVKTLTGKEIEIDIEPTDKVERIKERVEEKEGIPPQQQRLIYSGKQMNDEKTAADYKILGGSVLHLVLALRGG
Chain of tUI (Q9UMX0 whole entry, looked up): as the sequence (Q9UMX0 whole entry, looked up) above
Chain of Atto532-tISR (P45974 whole entry, looked up): as the sequence (P45974 whole entry, looked up) above

Substance | fold higher affinity for Ub than Nedd8 [1] [fold] | fold preference for Ub over Nedd8 [2] [fold] | Kd [1] [nM] | Kd [3] [nM] | Ki [4] [nM] | Kd [2] [nM] | Ki [2] [nM] | Kd [5] [nM]
Nedd8 (from UniProt Q15843 1-76) (natural protein) | 120 | 3000 |  |  |  |  |  | 
ubiquitin (from UniProt P0CG48 1-76) (natural protein) |  |  | 0.066 | 24.3 | 0.194 | 25.4 | 19 | 0.0564
